Measured values from patent US20180244785A1 (MERRIMACK PHARMACEUTICALS, published 2018).

T1: 6His-Fc-FGFR4 (human, UniProt P22455 144-369)
T1 construct: not shown: 6His tag and Fc as named in '6His-Fc-FGFR'
T1 sequence: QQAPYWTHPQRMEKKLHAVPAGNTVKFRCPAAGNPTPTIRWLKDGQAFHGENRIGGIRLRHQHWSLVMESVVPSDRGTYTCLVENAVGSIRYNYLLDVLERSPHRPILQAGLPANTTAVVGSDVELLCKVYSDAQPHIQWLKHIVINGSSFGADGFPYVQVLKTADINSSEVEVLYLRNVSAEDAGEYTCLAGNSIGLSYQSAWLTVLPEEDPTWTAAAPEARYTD

T2: 6His-Fc-FGFR1c (human, UniProt P11362 141-376)
T2 construct: not shown: 6His tag and Fc as named in '6His-Fc-FGFR'
T2 sequence: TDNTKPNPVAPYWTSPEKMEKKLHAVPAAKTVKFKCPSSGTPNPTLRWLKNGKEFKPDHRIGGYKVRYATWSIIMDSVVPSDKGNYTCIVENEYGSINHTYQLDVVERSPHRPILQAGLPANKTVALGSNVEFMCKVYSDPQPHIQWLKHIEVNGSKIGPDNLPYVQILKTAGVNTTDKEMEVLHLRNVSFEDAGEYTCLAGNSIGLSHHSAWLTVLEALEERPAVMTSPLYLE

T3: recombinant human FGFR3c Fc fusion (human, UniProt P22607 141-372)
T3 construct: also called FGFR3IIIc; not shown: Fc part of the FGFR-Fc fusion
T3 sequence: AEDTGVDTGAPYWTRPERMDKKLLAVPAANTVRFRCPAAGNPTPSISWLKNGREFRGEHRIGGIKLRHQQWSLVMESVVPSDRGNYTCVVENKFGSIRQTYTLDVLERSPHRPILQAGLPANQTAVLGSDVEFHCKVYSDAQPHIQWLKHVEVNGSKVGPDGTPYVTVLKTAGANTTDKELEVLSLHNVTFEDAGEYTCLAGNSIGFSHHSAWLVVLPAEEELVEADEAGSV

T4: recombinant human FGFR1c Fc fusion (human, UniProt P11362 141-376)
T4 construct: also called FGFR1IIIc; not shown: Fc part of the FGFR-Fc fusion
T4 sequence: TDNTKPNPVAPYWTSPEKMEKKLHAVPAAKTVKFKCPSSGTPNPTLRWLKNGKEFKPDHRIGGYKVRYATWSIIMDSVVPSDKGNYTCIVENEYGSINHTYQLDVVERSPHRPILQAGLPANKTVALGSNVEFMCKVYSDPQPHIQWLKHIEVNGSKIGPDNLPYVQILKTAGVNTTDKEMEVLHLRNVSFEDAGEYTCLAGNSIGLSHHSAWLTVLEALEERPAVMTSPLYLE

T5: recombinant human FGFR4 Fc fusion (human, UniProt P22455 144-369)
T5 construct: 19 used; also called FGFR4c; not shown: Fc part of the FGFR-Fc fusion
T5 sequence: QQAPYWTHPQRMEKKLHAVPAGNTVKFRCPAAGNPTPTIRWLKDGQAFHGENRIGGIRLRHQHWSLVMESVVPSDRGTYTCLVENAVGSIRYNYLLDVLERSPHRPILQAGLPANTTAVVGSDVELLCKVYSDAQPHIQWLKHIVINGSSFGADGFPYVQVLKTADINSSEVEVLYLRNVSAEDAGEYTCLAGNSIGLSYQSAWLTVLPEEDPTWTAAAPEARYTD

T6: soluble FGFR4 receptor protein (human, UniProt P22455 144-369)
T6 sequence: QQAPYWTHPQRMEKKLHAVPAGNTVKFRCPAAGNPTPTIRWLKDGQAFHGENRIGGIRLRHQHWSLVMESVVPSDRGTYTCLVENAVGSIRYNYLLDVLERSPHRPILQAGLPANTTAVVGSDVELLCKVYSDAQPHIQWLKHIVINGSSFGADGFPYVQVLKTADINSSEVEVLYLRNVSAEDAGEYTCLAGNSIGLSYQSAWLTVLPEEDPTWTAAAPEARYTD

T7: soluble FGFR1c receptor protein (human, UniProt P11362 141-376)
T7 sequence: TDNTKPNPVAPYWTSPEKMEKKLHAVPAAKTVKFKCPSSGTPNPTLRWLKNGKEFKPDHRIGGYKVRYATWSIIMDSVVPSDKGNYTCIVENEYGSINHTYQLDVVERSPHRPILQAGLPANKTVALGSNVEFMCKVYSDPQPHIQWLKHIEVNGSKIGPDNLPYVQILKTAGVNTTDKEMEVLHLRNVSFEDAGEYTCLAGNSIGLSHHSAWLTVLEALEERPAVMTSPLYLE

T8: soluble FGFR3c receptor protein (human, UniProt P22607 141-372)
T8 sequence: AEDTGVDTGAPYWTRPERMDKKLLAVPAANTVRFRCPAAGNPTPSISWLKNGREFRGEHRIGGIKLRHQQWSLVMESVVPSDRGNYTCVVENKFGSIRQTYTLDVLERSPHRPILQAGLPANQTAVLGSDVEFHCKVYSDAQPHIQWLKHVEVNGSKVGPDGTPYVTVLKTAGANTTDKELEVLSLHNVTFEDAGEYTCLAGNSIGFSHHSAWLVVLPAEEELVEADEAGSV


Columns and labels:
6His-Fc-FGFR4 = molecular target: T1, 6His-Fc-FGFR4; experiment: competition ELISA, blocks 6His-Fc-FGFR4 binding to coated FGF2
Description: (§1) ELISA plates were coated with 50 ug/ml Heparin Sulfate (HSPG) (Sigma Aldrich) and incubated overnight at room temperature. Plates were then washed extensively with PBS containing 0.05% v/v Tween20 (PBST). Plates were then blocked with 2.5% BSA in PBST for one hour and washed extensively as before. 40-60 μL of FGF1 or FGF2 was then added to each well at 40 μg/ml and allowed to bind at room temperature for 2 hours. Plates were then washed extensively with PBST as before. Stock solutions of each 6His-Fc-FGFR (FGFR1-4) were prepared at 500 ng/ml in 2% v/v BSA-PBST and each antibody was prepared as a 2×-dilution series in 2% v/v BSA-PBST. Antibodies dilution series and 6His-Fc-FGFR1-4 were diluted in a 1:1 fashion and immediately added to the relative wells of the plate and allowed to bind for 2 hours at room temperature. Plates were washed extensively as before with PBST and the remaining fraction of bound 6His-Fc-FGFR was detected using a polyclonal-anti-His-6-HRP conjugated antibody (Abcam) for one hour at room temperature. After extensive washing with PBST, 50 μl of Pierce Chemiluminescent substrate (Thermo Fisher Scientific, Rockford, USA) was added and plates were measured on an Envision plate reader (Perkin Elmer). Raw data was background corrected and plotted using Prism software. […]

FGFR1 on tumour cells = FGFR1 on tumour cells (UniProt P11362 22-822); experiment: cell-based or functional assay
6His-Fc-FGFR1c = molecular target: T2, 6His-Fc-FGFR1c; experiment: competition ELISA, blocks 6His-Fc-FGFR1c binding to coated FGF2
Description: as §1

[1] = molecular target: T3, recombinant human FGFR3c Fc fusion; experiment: solid phase ELISA on coated FGFR-Fc
Description: (§2) For the ELISA assay, the ability of each mAb to cross react with the […] FGF receptors was tested across a concentration curve in order to determine the relative binding across FGFR1-4. FGFR2IIIb was used as a negative control. Black 384-well Maxisorp plates were coated overnight with FGFR-Fc fusions in PBS to 1 ug/ml before washing and blocking with 75 ul/well Pierce Protein Free (PBS) Blocking Buffer for 1 hour at RT. Antibody dilutions were prepared freshly in 1% BSA- PBS+0.05% Tween20 and 25 ul of each antibody was added to wells in duplicate. Plates were incubated at RT for 2 hours, followed by addition of detection antibody at 50 ng/ml in 1% BSA PBS, 0.05% Tween20. ECL substrate (Pierce) was added and plates were read on the EnVision plate reader.

[2] = molecular target: T4, recombinant human FGFR1c Fc fusion; experiment: solid phase ELISA on coated FGFR-Fc
Description: as §2

[3] = molecular target: T9, recombinant human FGFR2c Fc fusion (human, UniProt P21802 148-377); experiment: solid phase ELISA on coated FGFR-Fc
T9 construct: also called FGFR2IIIc; not shown: Fc part of the FGFR-Fc fusion
Description: as §2

[4] = molecular target: T5, recombinant human FGFR4 Fc fusion; experiment: solid phase ELISA on coated FGFR-Fc
Description: as §2

[5] = molecular target: soluble FGFR2c receptor protein (human, UniProt P21802 148-377); experiment: BLI Octet RED96, antibody on anti-hIgG Fc tip
Description: (§3) Briefly, the Pall ForteBio Octet RED96 Bio-Layer Interferometry system was used to determine the specificity of anti-FGFR antibodies for FGFR1c, FGFR2c, FGFR3c, and FGFR4. The antibodies and soluble receptor proteins were prepared in PBS at a concentration of 300 nM. First, the candidate antibodies were immobilized on the surface of anti-human IgG Fc biosensor tips for 120 seconds. After immobilization, the biosensors were dipped in PBS solution for 60 seconds (baseline step) to assess assay drift, and determine loading level of antibodies. The baseline step was followed by an association step of 300 seconds wherein the binding interaction between the immobilized antibodies and soluble receptors was measured. Following the association step, the biosensors were dipped into PBS buffer for 600 seconds to measure the dissociation of the bound receptor proteins from the immobilized antibodies. Each binding response was measured and reported real time on a sensorgram trace. For data analysis, a simple 1:1 binding model was used which measures the rate of complex formation of one immobilized antibody and one soluble receptor protein.

[6] = molecular target: T6, soluble FGFR4 receptor protein; experiment: BLI Octet RED96, antibody on anti-hIgG Fc tip
Description: as §3

[7] = molecular target: T7, soluble FGFR1c receptor protein; experiment: BLI Octet RED96, antibody on anti-hIgG Fc tip
Description: as §3

[8] = molecular target: T8, soluble FGFR3c receptor protein; experiment: BLI Octet RED96, antibody on anti-hIgG Fc tip
Description: as §3

soluble FGFR2c receptor protein, sequence (P21802 148-377): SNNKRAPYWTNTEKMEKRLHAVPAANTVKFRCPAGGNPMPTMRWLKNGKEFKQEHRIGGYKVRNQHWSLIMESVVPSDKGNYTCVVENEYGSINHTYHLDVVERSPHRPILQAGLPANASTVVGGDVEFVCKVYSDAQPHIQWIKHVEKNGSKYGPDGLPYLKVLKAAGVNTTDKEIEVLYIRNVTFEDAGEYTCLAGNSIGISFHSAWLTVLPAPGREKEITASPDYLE
T9 sequence (P21802 148-377): as above
FGFR1 on tumour cells, sequence (P11362 22-822): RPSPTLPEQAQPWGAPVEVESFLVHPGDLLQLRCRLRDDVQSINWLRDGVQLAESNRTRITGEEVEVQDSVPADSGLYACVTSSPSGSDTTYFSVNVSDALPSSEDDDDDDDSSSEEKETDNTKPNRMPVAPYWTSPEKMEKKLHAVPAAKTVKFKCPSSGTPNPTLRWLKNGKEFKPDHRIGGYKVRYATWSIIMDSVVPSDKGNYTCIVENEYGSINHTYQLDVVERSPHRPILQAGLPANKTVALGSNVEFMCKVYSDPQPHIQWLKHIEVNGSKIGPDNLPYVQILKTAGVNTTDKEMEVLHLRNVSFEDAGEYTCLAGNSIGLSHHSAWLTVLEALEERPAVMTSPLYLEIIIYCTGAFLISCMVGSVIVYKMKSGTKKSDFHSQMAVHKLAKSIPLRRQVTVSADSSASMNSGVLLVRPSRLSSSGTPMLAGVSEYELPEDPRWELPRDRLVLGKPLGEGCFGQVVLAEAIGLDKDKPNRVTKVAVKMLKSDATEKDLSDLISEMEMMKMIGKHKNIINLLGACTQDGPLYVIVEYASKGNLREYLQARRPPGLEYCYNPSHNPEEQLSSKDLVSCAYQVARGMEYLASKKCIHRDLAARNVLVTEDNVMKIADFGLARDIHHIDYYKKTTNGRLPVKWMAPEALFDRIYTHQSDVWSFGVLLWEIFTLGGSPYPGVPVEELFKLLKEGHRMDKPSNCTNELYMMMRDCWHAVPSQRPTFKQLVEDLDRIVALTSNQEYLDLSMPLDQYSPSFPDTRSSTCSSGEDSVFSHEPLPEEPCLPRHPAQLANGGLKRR

| IC50 (6His-Fc-FGFR4) [nM] | IC50 of pERK inhibition (AlphaScreen SureFire) in NCI-H1581 cells (FGFR1 on tumour cells) [nM] | IC50 (6His-Fc-FGFR1c) [nM] | EC50 [1] [nM] | EC50 [2] [nM] | EC50 [3] [nM] | EC50 [4] [nM] | Kd [5] [nM] | koff [5] [s⁻¹] | kon [5] [M⁻¹ s⁻¹] | Kd [6] [nM] | koff [6] [s⁻¹] | kon [6] [M⁻¹ s⁻¹] | Kd [7] [nM] | koff [7] [s⁻¹] | kon [7] [M⁻¹ s⁻¹] | Kd [8] [nM] | koff [8] [s⁻¹] | kon [8] [M⁻¹ s⁻¹] | Binder |
| --- | --- | --- | --- | --- | --- | --- | --- | --- | --- | --- | --- | --- | --- | --- | --- | --- | --- | --- | --- |
| 7.38 | 0.715 | 4.15 | 0.171 | 0.013 | 0.036 | 1.26 | 4.62 | 0.0011 | 218000 | 6.69 | 0.000887 | 112000 | 12 | 0.00116 | 85100 | 11.6 | 0.0015 | 126000 | Ab90 (antibody, human IgG2, kappa, V domains shown, format in the assays not spelled out) VH: EVQLLESGGGVVQPGRSLRLSCAASGFTFSSYAMHWVRQAPGKGLEWVAVISYDGSNKYYADSVKGRFTISRDNSKNTLSLQMNSLRVEDTAIYYCVRGAGRGYPYGPDGFDIWGQGTMVTVSS VL: DIVMTQTPLSLSVTPGQPASISCTSSRSLLHSDGKTYVYWYVQKSGQPPQLLIYELSNRFSGVPDRFSGSGSRTDFTLKISRVEAEDVGVYYCMQYVEVPLTFGGGTKVEIKR |
| 14 | 1.91 | 4.16 | 0.264 | 0.0242 | 0.0325 | 13.1 | 8.75 | 0.00142 | 147000 | 40.3 | 0.00248 | 60600 | 20 | 0.00129 | 57000 | 37.6 | 0.00286 | 75600 | Ab92 (antibody, human IgG2, kappa, V domains shown, format in the assays not spelled out) VH: EVQLLESGGGVVQPGRSLRLSCAASGFTFSSYAMHWVRQAPGKGLEWVAVISYDGSNKYYADSVKGRFTISRDNSKNTLSLQMNSLRVEDTAIYYCVRGAGHGFPTGPDGFDIWGQGTMVTVSS VL: DIVMTQTPLSLSVTPGQPASISCRSSRSLLHSDGKTYVYWYVQKSGQPPQLLIYELSNRFSGVPDRFSGSGSRTDFTLKISRVEAEDVGVYYCMQYVEAPLTFGGGTKVEIKR |
| 11.8 | 1.01 | 2.03 | 0.0745 | 0.00674 | 0.0127 | 38.2 | 6.61 | 0.00167 | 252000 | 8.63 | 0.0012 | 125000 | 8.85 | 0.000967 | 91600 | 6.29 | 0.000983 | 151000 | Ab19 (antibody, human IgG2, kappa, V domains shown, format in the assays not spelled out) VH: EVQLLESGGGVVQPGRSLRLSCAASGFTFSSYAMHWVRQAPGKGLEWVAVISYDGSNKYYADSVKGRFTISRDNSKNTLSLQMNSLRVEDTAIYYCVRGAGRGFTLGPDGFDIWGQGTMVTVSS VL: DIVMTQTPLSLSVTPGQPASISCKSSRSLLHSDGKTYVYWYVQKSGQPPQLLIYELSNRFSGVPDRFSGSGSRTDFTLKISRVEAEDVGVYYCMQYIEAPLTFGGGTKVEIKR |
